Measurements from IntAct's records for PubMed 14669021.

B1: Protein ORD (Drosophila melanogaster (Fruit fly)), Q24434 (parent)
chain: MYGETTLNKNHVIKFIKLKINNCLGCDEVEINFSKADNVHIIIYSLVTDMAKDLPAVTPVAQAILLLCSLTYPDSDSLETIPQLKIGKGSVSMSFKVYPVNKEEETEPESESDLDEGPSTSKQALERMVQRAERKAKEASTRNVHSKGIYVNVERRFDMYFALDTVSYYINGGKRQSCPLPEFHAKFFVRPQHSINLLRQLHEKCSGNWLKVIQSDGDGDAFKKFKDPDSPFETFVKLFESNPIKPNDMMGKLAKTCLHVNEAVRLTEREFILEVFNQVRHIFEYITAQEYTVWFLVPCLGDKDQLRSKTLEDFDLTKVRTSIRRAGDTSNIWWDHTDHNIKDILLVAFQLDLATHVNQSVLVISHLETLAEFSTMQYVTAFFMNDFYAKKNTEPKWICHRYLERIIDVALFLGVIVIIEYPSAFTLLQEGRHLIKCFQKENADSSRTSQWEIFEDVVKENESDLEFLKEAVGKVQQNV
partner: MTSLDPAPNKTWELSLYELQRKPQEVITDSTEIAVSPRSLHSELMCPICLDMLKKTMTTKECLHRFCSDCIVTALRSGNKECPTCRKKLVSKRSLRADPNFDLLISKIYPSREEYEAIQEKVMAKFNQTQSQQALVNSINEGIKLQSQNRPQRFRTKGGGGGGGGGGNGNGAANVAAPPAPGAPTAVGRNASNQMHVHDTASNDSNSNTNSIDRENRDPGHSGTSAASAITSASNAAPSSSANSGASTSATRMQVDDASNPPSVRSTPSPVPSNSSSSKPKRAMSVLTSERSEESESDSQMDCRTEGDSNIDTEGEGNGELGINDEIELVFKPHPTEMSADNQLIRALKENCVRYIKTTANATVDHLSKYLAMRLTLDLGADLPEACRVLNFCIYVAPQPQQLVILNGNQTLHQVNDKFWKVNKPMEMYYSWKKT

Variants of: B1
Details: with ring1_drome Sce

effect of a mutation on the interaction | Variant
decreasing interaction | MYGETTLNKNHVIKFIKLKINNCLGCDEVEINFSKADNVHIIIYSLVTDMAKDLPAVTPVAQAILLLCSLTYPDSDSLETIPQLKIGKGSVSMSFKVYPVNKEEETEPESESDLDEGPSTSKQALERMVQRAERKAKEASTRNVHSKGIYVNVERRFDMYFALDTVSYYINGGKRQSCPLPEFHAKFFVRPQHSINLLRQLHEKCSGNWLKVIQSDGDGDAFKKFKDPDSPFETFVKLFESNPIKPNDMMGKLAKTCLHVNEAVRLTEREFILEVFNQVRHIFEYITAQEYTVWFLVPCLGDKDQLRSKTLEDFDLTKVRTSIRRAGDTSNIWWDHTDHNIKDILLVAFQLDLATHVNQSVLVISHLETLAEFSTMQYVTAFFMNDFYAKKNTEPKWICHRYLERIIDVALFLGVIDIIEYPSAFTLLQEGRHLIKCFQKENADSSRTSQWEIFEDVVKENESDLEFLKEAVGKVQQNV [V417D]
